B1: G(+) type fiber protein gp49 (natural protein, phage Mu, UniProt Q9T1V0 1-504, looked up)
chain: MFYIDNDSGVTVMPPVSAQRSAIVRWFSEGDGNNVITWPGMDWFNIVQAELLNTLEEAGIQPDKTKLNQLALSIKAIMSNNALLIKNNLSEIKTAGASAQRTARENLDIYDASLNKKGLVQLTSATDSPSETLAATAKAVKIAMDNANARLAKDRNGADIPNKPLFIQNLGLQETVNRARNAVQKNGDTLSGGLTFENDSILAWIRNTDWAKIGFKNDADSDTDSYMWFETGDNGNEYFKWRSKQSTTTKDLMNLKWDALSVLVNAIVNGEVISKSANGLRIAYGNYGFFIRNDGSNTYFMLTNSGDNMGTYNGLRPLWINNATGAVSMGRGLNVSGDTLSDRFAINSSNGMWIQMRDNNAIFGKNIVNTDSAQALLRQNHADRKFMIGGLGNKQFGIYMINNSRTANGTDGQAYMDNNGNWLCGAQVIPGNYANFDSRYVRDVRLGTQSLTGGLSRDYKAPSGHVITGFHTNGDWEMQGGDDKVYIRPVQKNINGTWYNVASA
notes: G(+) type tail fiber protein gp49 of myophage Mu, as it stands in the virion; only the N-terminus was modelled; Trimer; six fibers in the baseplate; Model deposited here; source: phage Mu virions grown on E. coli (ATCC 23724), purified (PEG 8000/NaCl precipitation, CsCl gradient)
B2: portal protein gp29 (natural protein, phage Mu, UniProt Q9T1W5 1-512, looked up)
chain: MGRILDISGQPFDFDDEMQSRSDELAMVMKRTQEHPSSGVTPNRAAQMLRDAERGDLTAQADLAFDMEEKDTHLFSELSKRRLAIQALEWRIAPARDASAQEKKDADMLNEYLHDAAWFEDALFDAGDAILKGYSMQEIEWGWLGKMRVPVALHHRDPALFCANPDNLNELRLRDASYHGLELQPFGWFMHRAKSRTGYVGTNGLVRTLIWPFIFKNYSVRDFAEFLEIYGLPMRVGKYPTGSTNREKATLMQAVMDIGRRAGGIIPMGMTLDFQSAADGQSDPFMAMIGWAEKAISKAILGGTLTTEAGDKGARSLGEVHDEVRREIRNADVGQLARSINRDLIYPLLALNSDSTIDINRLPGIVFDTSEAGDITALSDAIPKLAAG
notes: portal protein gp29 of myophage Mu, as it stands in the virion; Dodecamer; Model deposited here; source: phage Mu virions grown on E. coli (ATCC 23724), purified (PEG 8000/NaCl precipitation, CsCl gradient); copies: 12
B3: hub protein gp44 (natural protein, phage Mu, UniProt P08558 1-379, looked up)
chain: MSNTVTLRADGRLFTGWTSVSVTRSIESVAGYFELGVNVPPGTDLSGLAPGKKFTLEIGGQIVCTGYIDSRRRQMTADSMKITVAGRDKTADLIDCAAVYSGGQWKNRTLEQIARDLCAPYGVTVRWELSDKESSAAFPGFTLDHSETVYEALVRASRARGVLMTSNAAGELVFSRAASTATDELVLGENLLTLDFEEDFRDRFSEYTVKGYARANGAEGDDIDAKSIVSRKGTATDSDVTRYRPMIIIADSKITAKDAQARALREQRRRLAKSITFEAEIDGWTRKDGQLWMPNLLVTIDASKYAIKTTELLVSKVTLILNDQDGLKTRVSLAPREGFLVPVESDRKNRKGGDSNGGIDALVEDYYRRHPEKTPPWKE
notes: baseplate hub protein gp44 of myophage Mu, as it stands in the virion; Trimer; Model deposited here; source: phage Mu virions grown on E. coli (ATCC 23724), purified (PEG 8000/NaCl precipitation, CsCl gradient)
B4: tail sheath protein gp39 (natural protein, phage Mu, UniProt P79678 1-495, looked up)
chain: MSDISFNAIPSDVRVPLTYIEFDNSNAVSGTPAPRQRVLMFGQSGSKASAAPNVPVRIRSGSQASAAFGQGSMLALMADAFLNANRVAELWCIPQGNGTGNAAVGEISLSGTAGENGSLVTYIAGQRLAVSVAAGATGAALADLLVARIKGQPDLPVTAEVRADSGDDDTHADVVLSAKFTGALSAVDVRWNYYAGETTPYGIITAFKAASGKNGNPDISASIAGMGDLQYKYIVMPYTDEPNLNLLRTELQERWGPVNQADGFAVTVLSGTYGDISTFGVSRNDHLISCMGIAGAPEPSYLYAATLCAVASQALSIDPARPLQTLTLPGRMPPAVGDRFTWSERNALLFDGISTFNVNDGGEMQIERMITMYRTNKYGDSDPSYLNVNTIATLSYLRYSLRTRITQKFPNYKLASDGTRFATGQAVVTPSVIKTELLALFEEWENAGLVEDFDTFKEELYVARNKDDKDRLDVLCGPNLINQFRIFAAQVQFIL
notes: tail sheath protein gp39 of myophage Mu, as it stands in the virion; Hexameric rings, 30 of them stacked in the tail; Model deposited here; source: phage Mu virions grown on E. coli (ATCC 23724), purified (PEG 8000/NaCl precipitation, CsCl gradient)
B5: baseplate wedge protein 2 (BW2) gp47 (natural protein, phage Mu, UniProt Q9T1V2 1-360, looked up)
chain: MAYSPPTLSSLIARTEQNIEQRLPGSWPQAREKTLSAIAYAQAGLAAGCHEHISWVGRQIIPSTADEDELLEHCRFWGVRRKQATAASGPLTVTTSAATTIPAGTRWQRADGVVYSLADTIVIDRAGTTEITVTALAAGEAGNTGENTLLTLITPVACVVSDAITVKGFSGGADIESAAELLSRLEYRVQYPPFGGNQFDYVRWAREVSGVTRAWCFPTWKGGGTVGVTFVMDNRSNIFPQPADVERVADYIAGHTDPITGLIVGQPDGVNVTVFAPKAKPVNPRIYISPKTAELKQAITNAINTMFFNEVMPGGALAPSRIIRAVAGVTGLDDFEVRFPTEIQRSENTELLTAGTIEWL
notes: baseplate wedge protein 2 gp47 of myophage Mu, as it stands in the virion; Two conformers (BW2-i, BW2-o) in each of the six wedges; Model deposited here; also called BW2-i; BW2-o; source: phage Mu virions grown on E. coli (ATCC 23724), purified (PEG 8000/NaCl precipitation, CsCl gradient)
B6: tail tube protein gp40 (natural protein, phage Mu, UniProt P79679 1-118, looked up)
chain: MAGNQRQGVAFIRVNGMELESMEGASFTPSGITREEVTGSRVYGWKGKPRAAKVECKIPGGGPIGLDEIIDWENITVEFQADTGETWMLANAWQADEPKNDGGEISLVLMAKQSKRIA
notes: tail tube protein gp40 of myophage Mu, as it stands in the virion; Hexameric rings, 30 of them stacked in the tail; Model deposited here; source: phage Mu virions grown on E. coli (ATCC 23724), purified (PEG 8000/NaCl precipitation, CsCl gradient)
B7: tube initiator protein gp43 (natural protein, phage Mu, UniProt P08557 1-495, looked up)
chain: MFEDALNAVNAVRDKTGGGRKTTGKGTFRNVPFLVIEEQKQAGGRRLVKREYPLRDTGGVNDLGKKLRSRTFSACILNSNAETARDEAGALMDALDAPGSGELVHPDFGTVDVMVDSWECRTKADELNYYAFTVTVYPSLQDTAPDAETDTSAAVPAQAVAVTGSLGDTLSSVWQTVKDGTAAATAVMEAVTGVIDDISDAVDNLGVTQTVSGLMGSLSAMKGSVTSLINQPAMLASSLMGALSGVSSLCDTRTAFSTWNRLAQRFERRHAATAGRQGTITTSYNSPVAEKNIATLNYVMLAAAQTYRAEAASQALTAALDFSRRMDNAARAPVLDAPSTTTGTASGASSTSATVTQGQLQLTAITPDGGFSQVSFSDSGTATPPVFESVSDIEKTTAMLGAALDSVILTASEQGFSTDSVQLTQLRLLVVADLEKRGLQLAGSESHHLPETLPAMVALYRFTGNSRNWQRLARRNGISNPLFVPGGVSIEVINE
notes: tube initiator protein gp43 (N protein, DNA circularization protein) of myophage Mu, as it stands in the virion; Hexamer; Model deposited here; also called N protein; DNA circularization protein; source: phage Mu virions grown on E. coli (ATCC 23724), purified (PEG 8000/NaCl precipitation, CsCl gradient)

Assays:
Experiment in all cases: cryo-EM structure; purified phage Mu virions in the extended state (native phage) in phage buffer (10 mM MgCl2, 5 mM NaCl, 10 mM Tris-HCl, pH 7.4); icosahedral, symmetry-mismatch and local reconstruction; 3.2 Å (3-fold capsid), 3.4 Å (portal-adaptor), 3.5 Å (terminator-tail), 3.3 Å (baseplate)
[1] = biological target: major capsid protein (MCP) gp34 (phage Mu)
[2] = biological target: tail terminator protein gp37 (phage Mu)
[3] = biological target: adaptor protein gp36 (phage Mu)
[4] = biological target: tape measure protein (TMP) gp42 (phage Mu)
[5] = biological target: the molecule itself
[6] = biological target: B7; conditions: both partners purified
tail sheath protein gp39 = biological target: B4; conditions: both partners purified

“major capsid protein (MCP) gp34 (natural protein)” was tested. Which stoichiometry N [1] did it give?
Its stoichiometry N is 415.

Which stoichiometry N [2] does the source give for “tail terminator protein gp37 (natural protein)” here?
Its stoichiometry N is 6.

For adaptor protein gp36 (natural protein), which stoichiometry N [3] is on record?
Its stoichiometry N is 12.

With “tape measure protein (TMP) gp42 (natural protein)” as the molecule, how does the stoichiometry N [4] read?
The stoichiometry N was 3.

Which “stoichiometry N” value [5] does the source give for B1 here?
Its value is 3.

With B2 as the molecule, how does the “stoichiometry N” value [5] read?
Its value is 12.

How did the “stoichiometry N” value [5] turn out when B3 was run?
Its value is 3.

B4 was tested. Which “stoichiometry N” value [5] did it give?
The value was 6.

What does the source list for B5?
binding result [5]: binds; binding result [6]: binds

Which results are given for B6?
stoichiometry N [5]: 6; binding result (tail sheath protein gp39): binds

B7 was tested. Which “stoichiometry N” value [5] did it give?
The value was 6.

— article PMC11915804, “In situ structures of the contractile nanomachine myophage Mu in both its extended and contracted states” (Journal of Virology, 2025)
